Results on four substances are retold here after patent US20190002945A1.

The test deals with deglycosylated rituximab (Fucα1,6GlcNAc-rituximab). As to the kind of experiment: cell-based or functional assay.

On to “Endo-S2 D184A mutant (D184A mutant of wild type Endo-S2) (from UniProt T1WGN1 37-843) (enzyme)”, for which the KM (µM), transglycosylation kinetics for the deglycosylated rituximab was over 680 µM and the KM relative to Endo-S2 D184M is over 20 fold.

On to “Endo-S2 D184M mutant (D184M mutant of wild type Endo-S2) (from UniProt T1WGN1 37-843) (enzyme)”, for which the KM (µM), transglycosylation kinetics for the deglycosylated rituximab amounted to 32.6 µM.

Consider “Endo-S D233A mutant (Streptococcus pyogenes Endoglycosidase-S Asp-233-Ala) (from UniProt Q99Y92 37-995) (enzyme)”, for which the KM (µM), transglycosylation kinetics for the deglycosylated rituximab is over 200 µM.

With “Endo-S D233M mutant (Streptococcus pyogenes Endoglycosidase-S Asp-233-Met) (from UniProt Q99Y92 37-995) (enzyme)”, the KM (µM), transglycosylation kinetics for the deglycosylated rituximab was 30.2 µM.
